Target: TNF-α
Test: cell-based or functional assay

With Etanercept (Fc fusion) the EC50, L929 cytotoxicity assay (protection of L929 cells from TNF-α) was 1.1 ng/mL.

In the case of “Recombinant soluble TNFR2 (rsTNFR2) (from UniProt P25119 23-258) (receptor)”, the EC50, L929 cytotoxicity assay (protection of L929 cells from TNF-α) is reported as 698 ng/mL.

“mouse TNFR2 Δ7 with His-tag, from clone 1144-4 transfected HeLa cells (receptor)” was tested, and the EC50, L929 cytotoxicity assay; extracellular media from 1144-4 transfected HeLa cells was 2.4 ng/mL.

“mouse TNFR2 Δ7 without His-tag, from clone 1145-3 transfected HeLa cells (from UniProt P25119 23-474) (receptor)” gave an EC50, L929 cytotoxicity assay; extracellular media from 1145-3 transfected HeLa cells of 2.4 ng/mL.

— patent US20190359986A1
